Target: the molecule itself
Assay: crystal structure; SAD phasing, 1.5 Å; hanging-drop vapor diffusion at 291 K, 10 mg/ml Se-Met protein, well solution 1% ethylene glycol, 1.8 M ammonium sulfate, 100 mM MES pH 6.0; space group P212121; contact between symmetry-related molecules in the crystal

B1: human protein N-terminal glutamine amidohydrolase isoform 1 (hNtaq1) (enzyme)
chain: not shown
modifications: Se-Met labeled (selenomethionine in place of methionine)
notes: human N-terminal glutamine amidohydrolase isoform 1, encoded by the C8orf32 gene; 205 amino acids (Ser1 to Cys205), initial Met replaced by Ser after TEV cleavage; 202 residues modeled, Lys203, Asn204 and Cys205 disordered; Cloned by Gateway into pVP16 with N-terminal (His)6-MBP and a TEV site; also called human Ntaq1; not shown: His6, N-terminal, cleaved; MBP, N-terminal, cleaved
binding result: binds

— paper PMC4214742, “Crystal Structure of Human Protein N-Terminal Glutamine Amidohydrolase, an Initial Component of the N-End Rule Pathway” (PLoS ONE, 2014)
